Source: PMC12627087, “mRNA delivery of circumsporozoite protein epitope-based malaria vaccines induces protection in a mouse model” (NPJ Vaccines, 2025)
Substitutions are numbered along the chain they refer to.

B1: (NANP)6 24mer (other)
chain: NANPNANPNANPNANPNANPNANPLSKDIIKLLNEQVNKEMQSSNLYMSMSSWCYTHSLDGAGLFLFDHAAEEYEHAKKLIIFLNENNVPVNLTSISAPEHNFTGLTQIFQKAYEHEQNISESINNITDHAIKSKDHATFNFLQWYVAEQHEEEVLFKDILDKIELIGNENHGLYLADQYVKGIAKSRKS
modifications: glycosylated (engineered glycosylation sites)
notes: Plasmodium falciparum circumsporozoite protein (PfCSP), strain 3D7; (NANP)6, 24-residue NANP repeat peptide; Self-assembling ferritin nanoparticle; cloned into pHLsec between the leader and a double stop codon (AgeI/KpnI); source: FreeStyle 293 F cells, transfected, purified (snowdrop lectin agarose, Superose 6 SEC); copies: 24
B2: C-term WT 60mer (other)
chain: EPSDKHIKEYLNKIQNSLSTEWSPCSVTCGNGIQVRIKPGSANKPKDELDYANDIEKKICKMEKCGGSMQIYEGKLTAEGLRFGIVASRANHALVDRLVEGAIDAIVRHGGREEDITLVRVCGSWEIPVAAGELARKENISAVIAIGVLCRGATPSFDYIASEVSKGLADLSLELRKPITFGVITADTLEQAIEAAGTCHGNKGWEAALCAIEMANLFKSLRGGSNGTGGSGGSNGT
modifications: glycosylated (engineered glycosylation sites)
notes: Plasmodium falciparum circumsporozoite protein (PfCSP), strain 3D7; wild-type C-terminal αTSR domain, without the C-terminal linker; linker; C-terminal extension with two added glycosylation sites; Self-assembling lumazine synthase nanoparticle; cloned into pHLsec between the leader and a double stop codon (AgeI/KpnI); also called wild-type C-terminal domain on 60mer; WT αTSR 60mer; source: …
B3: C-term MD1 24mer (other)
chain: EPSDNHTKSYYAKIQNSLSTEWSPCSVTCGNGIQVRIKPGSANKPKANLTYANDIEKKICKMEKCGGSLSKDIIKLLNEQVNKEMQSSNLYMSMSSWCYTHSLDGAGLFLFDHAAEEYEHAKKLIIFLNENNVPVNLTSISAPEHNFTGLTQIFQKAYEHEQNISESINNITDHAIKSKDHATFNFLQWYVAEQHEEEVLFKDILDKIELIGNENHGLYLADQYVKGIAKSRKS
modifications: glycosylated (engineered glycosylation sites)
notes: Plasmodium falciparum circumsporozoite protein (PfCSP), strain 3D7; C-terminal αTSR domain, Rosetta-designed variant MD1; linker; Self-assembling ferritin nanoparticle; cloned into pHLsec between the leader and a double stop codon (AgeI/KpnI); also called modified-1 C-term 24mer; MD1 αTSR 24mer; source: FreeStyle 293 F cells, transfected, purified (snowdrop lectin agarose, Superose 6 SEC); …
B4: C-term MD1 60mer (other)
chain: B2 chain with K5N, I7T, E9S, L11Y, N12A, D47A, E48N, D50T
modifications: glycosylated (engineered glycosylation sites)
notes: Plasmodium falciparum circumsporozoite protein (PfCSP), strain 3D7; C-terminal αTSR domain, Rosetta-designed variant MD1; linker; C-terminal extension with two added glycosylation sites; Self-assembling lumazine synthase nanoparticle; cloned into pHLsec between the leader and a double stop codon (AgeI/KpnI); also called modified-1 C-term 60mer; MD1 αTSR 60mer; source: FreeStyle 293 F cells, …
B5: P1 24mer (other)
chain: YGSSSNTRVLNELNYLSKDIIKLLNEQVNKEMQSSNLYMSMSSWCYTHSLDGAGLFLFDHAAEEYEHAKKLIIFLNENNVPVNLTSISAPEHNFTGLTQIFQKAYEHEQNISESINNITDHAIKSKDHATFNFLQWYVAEQHEEEVLFKDILDKIELIGNENHGLYLADQYVKGIAKSRKS
modifications: glycosylated (engineered glycosylation sites)
notes: Plasmodium falciparum circumsporozoite protein (PfCSP), strain 3D7; Self-assembling ferritin nanoparticle; cloned into pHLsec between the leader and a double stop codon (AgeI/KpnI); source: FreeStyle 293 F cells, transfected, purified (snowdrop lectin agarose, Superose 6 SEC); copies: 24
B6: P1 60mer (other)
chain: YGSSSNTRVLNELNYGSGNGTGGSMQIYEGKLTAEGLRFGIVASRANHALVDRLVEGAIDAIVRHGGREEDITLVRVCGSWEIPVAAGELARKENISAVIAIGVLCRGATPSFDYIASEVSKGLADLSLELRKPITFGVITADTLEQAIEAAGTCHGNKGWEAALCAIEMANLFKSLRGGSNGTGGSGGSNGT
modifications: glycosylated (engineered glycosylation sites)
notes: Plasmodium falciparum circumsporozoite protein (PfCSP), strain 3D7; linker between the peptide and lumazine synthase; C-terminal extension with two added glycosylation sites; Self-assembling lumazine synthase nanoparticle; cloned into pHLsec between the leader and a double stop codon (AgeI/KpnI); source: FreeStyle 293 F cells, transfected, purified (snowdrop lectin agarose, Superose 6 SEC); …
B7: P2 24mer (other)
chain: SNTRVLNELNYDNAGLSKDIIKLLNEQVNKEMQSSNLYMSMSSWCYTHSLDGAGLFLFDHAAEEYEHAKKLIIFLNENNVPVNLTSISAPEHNFTGLTQIFQKAYEHEQNISESINNITDHAIKSKDHATFNFLQWYVAEQHEEEVLFKDILDKIELIGNENHGLYLADQYVKGIAKSRKS
modifications: glycosylated (engineered glycosylation sites)
notes: as for B5
B8: P2 60mer (other)
chain: SNTRVLNELNYDNAGGSGNGTGGSMQIYEGKLTAEGLRFGIVASRANHALVDRLVEGAIDAIVRHGGREEDITLVRVCGSWEIPVAAGELARKENISAVIAIGVLCRGATPSFDYIASEVSKGLADLSLELRKPITFGVITADTLEQAIEAAGTCHGNKGWEAALCAIEMANLFKSLRGGSNGTGGSGGSNGT
modifications: glycosylated (engineered glycosylation sites)
notes: as for B6
B9: P8 24mer (other)
chain: NYYGKQENWYSLKKNLSKDIIKLLNEQVNKEMQSSNLYMSMSSWCYTHSLDGAGLFLFDHAAEEYEHAKKLIIFLNENNVPVNLTSISAPEHNFTGLTQIFQKAYEHEQNISESINNITDHAIKSKDHATFNFLQWYVAEQHEEEVLFKDILDKIELIGNENHGLYLADQYVKGIAKSRKS
modifications: glycosylated (engineered glycosylation sites)
notes: as for B5
B10: P8 60mer (other)
chain: NYYGKQENWYSLKKNGSGNGTGGSMQIYEGKLTAEGLRFGIVASRANHALVDRLVEGAIDAIVRHGGREEDITLVRVCGSWEIPVAAGELARKENISAVIAIGVLCRGATPSFDYIASEVSKGLADLSLELRKPITFGVITADTLEQAIEAAGTCHGNKGWEAALCAIEMANLFKSLRGGSNGTGGSGGSNGT
modifications: glycosylated (engineered glycosylation sites)
notes: as for B6
B11: P9 24mer (other)
chain: KQENWYSLKKNSRSLLSKDIIKLLNEQVNKEMQSSNLYMSMSSWCYTHSLDGAGLFLFDHAAEEYEHAKKLIIFLNENNVPVNLTSISAPEHNFTGLTQIFQKAYEHEQNISESINNITDHAIKSKDHATFNFLQWYVAEQHEEEVLFKDILDKIELIGNENHGLYLADQYVKGIAKSRKS
modifications: glycosylated (engineered glycosylation sites)
notes: as for B5
B12: (NANP)6 60mer (other)
chain: NANPNANPNANPNANPNANPNANPGSGNGTGGSMQIYEGKLTAEGLRFGIVASRANHALVDRLVEGAIDAIVRHGGREEDITLVRVCGSWEIPVAAGELARKENISAVIAIGVLCRGATPSFDYIASEVSKGLADLSLELRKPITFGVITADTLEQAIEAAGTCHGNKGWEAALCAIEMANLFKSLRGGSNGTGGSGGSNGT
modifications: glycosylated (engineered glycosylation sites)
notes: Plasmodium falciparum circumsporozoite protein (PfCSP), strain 3D7; (NANP)6, 24-residue NANP repeat peptide; linker between the peptide and lumazine synthase; C-terminal extension with two added glycosylation sites; Self-assembling lumazine synthase nanoparticle; cloned into pHLsec between the leader and a double stop codon (AgeI/KpnI); also called (NANP)6 peptide 60mer; source: FreeStyle 293 F …
B13: P9 60mer (other)
chain: KQENWYSLKKNSRSLGSGNGTGGSMQIYEGKLTAEGLRFGIVASRANHALVDRLVEGAIDAIVRHGGREEDITLVRVCGSWEIPVAAGELARKENISAVIAIGVLCRGATPSFDYIASEVSKGLADLSLELRKPITFGVITADTLEQAIEAAGTCHGNKGWEAALCAIEMANLFKSLRGGSNGTGGSGGSNGT
modifications: glycosylated (engineered glycosylation sites)
notes: as for B6
B14: P15 24mer (other)
chain: DNEKLRKPKHKKLKQLSKDIIKLLNEQVNKEMQSSNLYMSMSSWCYTHSLDGAGLFLFDHAAEEYEHAKKLIIFLNENNVPVNLTSISAPEHNFTGLTQIFQKAYEHEQNISESINNITDHAIKSKDHATFNFLQWYVAEQHEEEVLFKDILDKIELIGNENHGLYLADQYVKGIAKSRKS
modifications: glycosylated (engineered glycosylation sites)
notes: as for B5
B15: J2 24mer (other)
chain: KLKQPADGNPDPNANPNVDPNANPNVDPLSKDIIKLLNEQVNKEMQSSNLYMSMSSWCYTHSLDGAGLFLFDHAAEEYEHAKKLIIFLNENNVPVNLTSISAPEHNFTGLTQIFQKAYEHEQNISESINNITDHAIKSKDHATFNFLQWYVAEQHEEEVLFKDILDKIELIGNENHGLYLADQYVKGIAKSRKS
modifications: glycosylated (engineered glycosylation sites)
notes: Plasmodium falciparum circumsporozoite protein (PfCSP), strain 3D7; J2, minimal junction peptide beginning with Region I; Self-assembling ferritin nanoparticle; cloned into pHLsec between the leader and a double stop codon (AgeI/KpnI); also called peptide J2-24mer; source: FreeStyle 293 F cells, transfected, purified (snowdrop lectin agarose, Superose 6 SEC); copies: 24
B16: J2 60mer (other)
chain: KLKQPADGNPDPNANPNVDPNANPNVDPGSGNGTGGSMQIYEGKLTAEGLRFGIVASRANHALVDRLVEGAIDAIVRHGGREEDITLVRVCGSWEIPVAAGELARKENISAVIAIGVLCRGATPSFDYIASEVSKGLADLSLELRKPITFGVITADTLEQAIEAAGTCHGNKGWEAALCAIEMANLFKSLRGGSNGTGGSGGSNGT
modifications: glycosylated (engineered glycosylation sites)
notes: Plasmodium falciparum circumsporozoite protein (PfCSP), strain 3D7; J2, minimal junction peptide beginning with Region I; linker between the peptide and lumazine synthase; C-terminal extension with two added glycosylation sites; Self-assembling lumazine synthase nanoparticle; cloned into pHLsec between the leader and a double stop codon (AgeI/KpnI); also called peptide J2-60mer; short junctional …
B17: J3 24mer (other)
chain: KLKQPADGNPDPNANPNVDPNANPNVDPNANPNVDPLSKDIIKLLNEQVNKEMQSSNLYMSMSSWCYTHSLDGAGLFLFDHAAEEYEHAKKLIIFLNENNVPVNLTSISAPEHNFTGLTQIFQKAYEHEQNISESINNITDHAIKSKDHATFNFLQWYVAEQHEEEVLFKDILDKIELIGNENHGLYLADQYVKGIAKSRKS
modifications: glycosylated (engineered glycosylation sites)
notes: Plasmodium falciparum circumsporozoite protein (PfCSP), strain 3D7; J3, full-length junctional peptide beginning with Region I; Self-assembling ferritin nanoparticle; cloned into pHLsec between the leader and a double stop codon (AgeI/KpnI); also called peptide J3-24mer; source: FreeStyle 293 F cells, transfected, purified (snowdrop lectin agarose, Superose 6 SEC); copies: 24
B18: J3 60mer (other)
chain: KLKQPADGNPDPNANPNVDPNANPNVDPNANPNVDPGSGNGTGGSMQIYEGKLTAEGLRFGIVASRANHALVDRLVEGAIDAIVRHGGREEDITLVRVCGSWEIPVAAGELARKENISAVIAIGVLCRGATPSFDYIASEVSKGLADLSLELRKPITFGVITADTLEQAIEAAGTCHGNKGWEAALCAIEMANLFKSLRGGSNGTGGSGGSNGT
modifications: glycosylated (engineered glycosylation sites)
notes: Plasmodium falciparum circumsporozoite protein (PfCSP), strain 3D7; J3, full-length junctional peptide beginning with Region I; linker between the peptide and lumazine synthase; C-terminal extension with two added glycosylation sites; Self-assembling lumazine synthase nanoparticle; cloned into pHLsec between the leader and a double stop codon (AgeI/KpnI); also called peptide J3-60mer; source: …
B19: J3R3 24mer (other)
chain: KLKQPADGNPDPNANPNVDPNANPNVDPNANPNVDPNANPNANPNANPLSKDIIKLLNEQVNKEMQSSNLYMSMSSWCYTHSLDGAGLFLFDHAAEEYEHAKKLIIFLNENNVPVNLTSISAPEHNFTGLTQIFQKAYEHEQNISESINNITDHAIKSKDHATFNFLQWYVAEQHEEEVLFKDILDKIELIGNENHGLYLADQYVKGIAKSRKS
modifications: glycosylated (engineered glycosylation sites)
notes: Plasmodium falciparum circumsporozoite protein (PfCSP), strain 3D7; J3R3, junctional peptide with three added NANP repeats; Self-assembling ferritin nanoparticle; cloned into pHLsec between the leader and a double stop codon (AgeI/KpnI); source: FreeStyle 293 F cells, transfected, purified (snowdrop lectin agarose, Superose 6 SEC); copies: 24
B20: J3R3 60mer (other)
chain: KLKQPADGNPDPNANPNVDPNANPNVDPNANPNVDPNANPNANPNANPGSGNGTGGSMQIYEGKLTAEGLRFGIVASRANHALVDRLVEGAIDAIVRHGGREEDITLVRVCGSWEIPVAAGELARKENISAVIAIGVLCRGATPSFDYIASEVSKGLADLSLELRKPITFGVITADTLEQAIEAAGTCHGNKGWEAALCAIEMANLFKSLRGGSNGTGGSGGSNGT
modifications: glycosylated (engineered glycosylation sites)
notes: Plasmodium falciparum circumsporozoite protein (PfCSP), strain 3D7; J3R3, junctional peptide with three added NANP repeats; linker between the peptide and lumazine synthase; C-terminal extension with two added glycosylation sites; Self-assembling lumazine synthase nanoparticle; cloned into pHLsec between the leader and a double stop codon (AgeI/KpnI); source: FreeStyle 293 F cells, transfected, …
B21: C-term WT 24mer (other)
chain: B3 chain with N5K, T7I, S9E, Y11L, A12N, A47D, N48E, T50D
modifications: glycosylated (engineered glycosylation sites)
notes: Plasmodium falciparum circumsporozoite protein (PfCSP), strain 3D7; wild-type C-terminal αTSR domain, without the C-terminal linker; linker; Self-assembling ferritin nanoparticle; cloned into pHLsec between the leader and a double stop codon (AgeI/KpnI); also called wild-type C-terminal domain on 24mer; WT αTSR 24mer; source: FreeStyle 293 F cells, transfected, purified (snowdrop lectin agarose, …)

Molecular target: the molecule itself
Experiment: SEC + SEC-MALS + other: negative stain electron microscopy; self-assembly of the protomer into the nanoparticle; Superose 6 10/300 at 0.5 ml/min with DAWN HELEOS II and Optilab T-rEX detectors, glycan mass corrected by protein-conjugate analysis; nsEM at 0.1 mg/ml in HBS, uranyl formate

Protein | binding result
B1 | binds
B2 | binds
B3 | binds
B4 | binds
B5 | binds
B6 | binds
B7 | binds
B8 | binds
B9 | binds
B10 | binds
B11 | binds
B12 | binds
B13 | binds
B14 | binds
B15 | binds
B16 | binds
B17 | binds
B18 | binds
B19 | binds
B20 | binds
B21 | binds
